Measured values as given in patent US20230357810A1, “NEOPINONE ISOMERASE AND METHODS OF USING” (Antheia, Inc., priority 2017, published 2023).

Key:
[1] = test system: Yeast strains with chromosomally integrated T6ODM; experiment: Hydrocodone production in yeast strains with chromosomally integrated T6ODM (FIG. 14); assay type: cell-based
[2] = test system: neopine formation in the presence of COR; experiment: Neopine formation with PR10-8 mutant proteins, NISO or NISO mutants and COR (FIG. 13); assay type: biochemical
Method: Neopine formation in the presence of the mutant proteins and COR was assessed, and compared to neopine formation using COR and NISOΔ1, NISOΔ2, and NISOΔ3. In the absence of NISO, neopine constitutes about 25% of the reaction product. Neopine formation can be reduced to 5% or less in the presence of NISO. Consistent with the previous experiment, in the presence of NISOΔ1, NISOΔ2, or NISOΔ3 an increase in neopine is observed, relative to wildtype NISO. […] Thus the relatively modest sequence differences between Domains Δl, Δ2, Δ3, Δ4 of NISO and PR10-8 nevertheless are significant with respect to the ability to suppress neopine production in the presence of COR.

[3] = test system: codeinone and morphinone substrates; experiment: COR-B assay alone or together with NISO, substrate conversion and products formed (FIG. 16); assay type: biochemical; conditions: 20 mins
Method: Assay mixtures containing purified recombinant COR-B (~0.1 µg) alone, or purified recombinant COR-B (~0.1 µg) together with purified recombinant NISO (0.196 µg) (1:4 molar ratio), Na-ascorbate cofactor, and 1 mM NADPH, were incubated for 20 mins using one of the following substrates: codeine, neopine, morphine, neopmorphine, codeinone and morphinone. The percentages substrate conversion and products formed were determined.

thebaine = experiment: NISO-coupled T6ODM-COR-CODM assay with thebaine as substrate, LC-MS/MS; assay type: biochemical; conditions: CODM plus NISO vs without NISO, 100 µM thebaine, 30° C., 1 hr
[4] = COR-B and NISO together vs COR-B alone

B1: MorB: morphine reductase from Pseudomonas putida M10, SEQ.ID NO: 22, expressed in yeast (protein, listed as Papaver somniferum)
chain: MPDTSFSNPGLFTPLQLGSLSLPNRVIMAPLTRSRTPDSVPGRLQQIYYGQRASAGLIISEATNISPTARGYVYTPGIWTDAQEAGWKGVVEAVHAKGGRIALQLWHVGRVSHELVQPDGQQPVAPSALKAEGAECFVEFEDGTAGLHPTSTPRALETDEIPGIVEDYRQAAQRAKRAGFDMVEVHAANACLPNQFLATGTNRRTDQYGGSIENRARFPLEVVDAVAEVFGPERVGIRLTPFLELFGLTDDEPEAMAFYLAGELDRRGLAYLHFNEPDWIGGDITYPEGFREQMRQRFKGGLIYCGNYDAGRAQARLDDNTADAVAFGRPFIANPDLPERFRLGAALNEPDPSTFYGGAEVGYTDYPFLDNGHDRLG
[1]
  production of hydrocodone: trace amounts

B2: PR10-8: PR-polypeptide of Papaver somniferum similar to NISO, SEQ.ID NO: 38 (protein, listed as Papaver somniferum)
chain: MAHHGVSGLVGKLVTQLEVNCDADEFYKIWKHHEEVPKAVSHFFPAVKVVKGDGLVSGCIKEWHYILEGKAMSAMEETTHNDETRTLHHQVVEGEVMKDYKAIASIIQVNPNPNGHGSIVTWSIEYEKMNEDSPTPFAYLEFFHQNIIDMNSHLYVGSDSHLHVDE
[2]
  ability to reduce neopine production: unable to reduce neopine production

B3: NISO: neopinone isomerase polypeptide of Papaver somniferum, SEQ.ID NO: 2; recombinant, His6-tagged, from E. coli (protein, listed as Papaver somniferum)
chain: MDSVSAALVFHSSIYLCAMAHHGVSGLVGKIVTELEVNCNADEFYKILKRDEDVPRAVSDLFPPVKIAKGDGLVSGCIKEWDCVLDGKAMSGKEETTHNDETRTLRHRELEGDLMKDYKKFDSIIEVNPKPNGHGSIVTWSIEYEKMNEDSPAPFAYLASFHQNVVEVDSHLCLSE
modifications: His6 tag
notes: recombinant, His6-tagged, from E. coli
[3]; [4]
  product codeine formed from codeinone substrate: substantial increase
  product morphine formed from morphinone substrate: substantial increase
[3]; COR-B plus NISO (1:4 molar ratio) vs COR-B alone
  codeinone substrate turnover increase: ~2 fold
thebaine
  codeine production: increases substantially
  morphine production: increases
  neopine production: reduced
[2]; about 25% in the absence of NISO
  neopine formation (share of the reaction product): ≤ 5%
